Paper PMC5414288, “^99mTc-radiolabeled GE11-modified peptide for ovarian tumor targeting” (DARU Journal of Pharmaceutical Sciences, 2017)

What was measured:
[1] = system: SKOV3 human ovarian cancer xenografts; test: Biodistribution study in nude mice bearing SKOV3 xenografts; format: in vivo; settings: female nude mice bearing SKOV3 xenograft, 1 μg i.v.; for Blood uptake / Bone uptake / Heart uptake / Intestine uptake / Kidney uptake / Liver uptake / Lung uptake / Muscle uptake / Spleen uptake / Stomach uptake / Tumor uptake / s.g & Th. (salivary gland and thyroid) uptake: mean ± SD
Procedure: The in vivo tumor-targeting of the radiolabeled peptide was studied in female nude mice bearing SKOV3 cancer xenografts. For tumor induction, 10 × 10^6 SKOV3 cells were subcutaneously injected into the right hind leg of nude mice and tumor was allowed to grow for about 4 weeks. In the day of experiment, the average tumor size was 0.63 ± 0.2 g and the mice were randomly divided into three groups of 4 mouse each. The mice were injected intravenously 1 μg of the radiolabelled peptide. At 1 h and 4 h after injection, the mice were sacrificed and the tumor and other tissues were dissected. Blocking experiment was also performed using three nude mice which were subjected to injection of the excess amount (500 μg/50 μl) of the unlabeled peptide 30 min before radioconjugate peptide injection.

Stability in human serum = format: in vitro ADME; settings: fresh human serum (100 μl to 20 μl reaction mixture), 37 °C, 4 h, acetonitrile/ethanol precipitation, RP-HPLC
Procedure: Serum stability of the peptide was also determined following addition of 100 μl of fresh human serum to 20 μl of the reaction mixture and incubation for 1 and 4 h at 37 °C. Plasma samples were then treated with 500 μl of a mixture of acetonitrile and ethanol (1:1), centrifuged (14,000 rpm, 6 min), filtered (0.22 μm) and degradation of the radiolabeled peptide was assessed in supernatant by RP-HPLC [24].

[2] = Biodistribution study in normal mice; format: in vivo; settings: normal female NMRI mice, 1 μg i.v., mean ± SD, n = 4
Procedure: Normal female NMRI mice (20–30 g, Mazandaran animal center institute, Sari, Iran) were used in this study and randomly divided into 3 groups of 4. 100 μL of the solution containing 1 μg of the radiolabeled peptide was intravenously injected to the tail vein of each mouse. Mice were euthanized through intraperitoneal injection of ketamine and xylazine at 1, 4 and 24 h after injection. Blood was collected from the heart after deep anesthesia by a syringe which had been washed with heparin. Thereafter, organ samples including; lungs, stomach, liver, kidneys, bone, muscle, salivary glands, heart, spleen and intestines were removed, weighted and the radioactivity of each sample was measured. The tissue uptake of all organs except intestine was calculated as percent of injected dose per gram tissue (% ID/g) and for the intestine was calculated as % ID of the whole sample.

[3] = 4 h p.i., blocked with excess unlabeled peptide (500 μg) 0.5 h before, n = 3

CC[C@H](C)[C@H](NC(=O)[C@@H](NC(=O)[C@H](CC(N)=O)NC(=O)[C@H](CCC(N)=O)NC(=O)[C@@H]1CCCN1C(=O)[C@@H](NC(=O)[C@H](Cc1ccc(O)cc1)NC(=O)CNC(=O)[C@H](Cc1ccc(O)cc1)NC(=O)[C@H](Cc1c[nH]c2ccccc12)NC(=O)[C@H](Cc1c[nH]cn1)NC(=O)[C@H](Cc1ccc(O)cc1)NC(=O)[C@H](CO)NC(=O)[C@H](CO)NC(=O)[C@H](CO)NC(=O)c1ccc(NN)nc1)[C@@H](C)O)C(C)C)C(=O)O [^99mTc-tricine-HYNIC-SSS-GE11, metal not drawn]
Blood uptake ([1]; 1 h p.i., n = 4): 2.53 ± 0.51 % ID/g | Bone uptake ([1]; 1 h p.i., n = 4): 1.91 ± 0.53 % ID/g | Heart uptake ([1]; 1 h p.i., n = 4): 2.40 ± 0.96 % ID/g | Intestine uptake ([1]; 1 h p.i., n = 4): 8.38 ± 4.11 % ID/g | Kidney uptake ([1]; 1 h p.i., n = 4): 64.95 ± 7.81 % ID/g | Liver uptake ([1]; 1 h p.i., n = 4): 6.93 ± 0.95 % ID/g | Lung uptake ([1]; 1 h p.i., n = 4): 3.39 ± 0.64 % ID/g | Muscle uptake ([1]; 1 h p.i., n = 4): 0.99 ± 0.21 % ID/g | Spleen uptake ([1]; 1 h p.i., n = 4): 2.86 ± 0.17 % ID/g | Stomach uptake ([1]; 1 h p.i., n = 4): 2.65 ± 0.66 % ID/g | Tumor uptake ([1]; 1 h p.i., n = 4): 2.33 ± 0.67 % ID/g | s.g & Th. (salivary gland and thyroid) uptake ([1]; 1 h p.i., n = 4): 2.52 ± 0.82 % ID/g | Tumor/Blood Ratio ([1]; 1 h p.i., n = 4): 0.92 | Tumor/Bone Ratio ([1]; 1 h p.i., n = 4): 1.2 | Tumor/Muscle Ratio ([1]; 1 h p.i., n = 4): 2.3 | Blood uptake [1, 3]: 0.99 ± 0.18 % ID/g | Bone uptake [1, 3]: 1.01 ± 0.11 % ID/g | Heart uptake [1, 3]: 0.65 ± 0.1 % ID/g | Intestine uptake [1, 3]: 3.83 ± 2.1 % ID/g | Kidney uptake [1, 3]: 42.10 ± 4.39 % ID/g | Liver uptake [1, 3]: 3.28 ± 0.93 % ID/g | Lung uptake [1, 3]: 1.24 ± 0.12 % ID/g | Muscle uptake [1, 3]: 0.51 ± 0.07 % ID/g | Spleen uptake [1, 3]: 0.83 ± 0.1 % ID/g | Stomach uptake [1, 3]: 1.16 ± 0.11 % ID/g | Tumor uptake [1, 3]: 0.93 ± 0.10 % ID/g | s.g & Th. (salivary gland and thyroid) uptake [1, 3]: 0.89 ± 0.16 % ID/g | Tumor/Blood Ratio [1, 3]: 0.96 | Tumor/Bone Ratio [1, 3]: 0.92 | Tumor/Muscle Ratio [1, 3]: 1.86 | Blood uptake ([1]; 4 h p.i., n = 4): 1.43 ± 0.18 % ID/g | Bone uptake ([1]; 4 h p.i., n = 4): 1.29 ± 0.29 % ID/g | Heart uptake ([1]; 4 h p.i., n = 4): 1.56 ± 0.37 % ID/g | Intestine uptake ([1]; 4 h p.i., n = 4): 3.24 ± 0.9 % ID/g | Kidney uptake ([1]; 4 h p.i., n = 4): 57.90 ± 0.49 % ID/g | Liver uptake ([1]; 4 h p.i., n = 4): 4.64 ± 0.69 % ID/g | Lung uptake ([1]; 4 h p.i., n = 4): 1.79 ± 0.34 % ID/g | Muscle uptake ([1]; 4 h p.i., n = 4): 0.51 ± 0.14 % ID/g | Spleen uptake ([1]; 4 h p.i., n = 4): 1.49 ± 0.32 % ID/g | Stomach uptake ([1]; 4 h p.i., n = 4): 1.53 ± 0.16 % ID/g | Tumor uptake ([1]; 4 h p.i., n = 4): 1.66 ± 0.41 % ID/g | s.g & Th. (salivary gland and thyroid) uptake ([1]; 4 h p.i., n = 4): 1.80 ± 0.21 % ID/g | Tumor/Blood Ratio ([1]; 4 h p.i., n = 4): 1.17 | Tumor/Bone Ratio ([1]; 4 h p.i., n = 4): 1.3 | Tumor/Muscle Ratio ([1]; 4 h p.i., n = 4): 3.42 | Stability in human serum (Stability in human serum): 96% | Blood uptake ([2]; 1 h p.i.): 0.84 ± 0.04 % ID/g | Bone uptake ([2]; 1 h p.i.): 0.97 ± 0.14 % ID/g | Heart uptake ([2]; 1 h p.i.): 0.76 ± 0.16 % ID/g | Kidney uptake ([2]; 1 h p.i.): 24.5 ± 1.7 % ID/g | Liver uptake ([2]; 1 h p.i.): 2.88 ± 0.84 % ID/g | Lung uptake ([2]; 1 h p.i.): 1.14 ± 0.63 % ID/g | Muscle uptake ([2]; 1 h p.i.): 0.52 ± 0.14 % ID/g | Spleen uptake ([2]; 1 h p.i.): 0.61 ± 0.14 % ID/g | Stomach uptake ([2]; 1 h p.i.): 0.91 ± 0.27 % ID/g | s.g & Th. (salivary gland and thyroid) uptake ([2]; 1 h p.i.): 0.87 ± 0.15 % ID/g | Blood uptake ([2]; 4 h p.i.): less than 1 % ID/g | Bone uptake ([2]; 4 h p.i.): 0.57 ± 0.2 % ID/g | Heart uptake ([2]; 4 h p.i.): 0.44 ± 0.18 % ID/g | Kidney uptake ([2]; 4 h p.i.): 17.5 ± 1.25 % ID/g | Liver uptake ([2]; 4 h p.i.): 2.05 ± 0.39 % ID/g | Lung uptake ([2]; 4 h p.i.): 0.68 ± 0.23 % ID/g | Muscle uptake ([2]; 4 h p.i.): 0.23 ± 0.11 % ID/g | Spleen uptake ([2]; 4 h p.i.): 0.41 ± 0.13 % ID/g | Stomach uptake ([2]; 4 h p.i.): 0.57 ± 0.15 % ID/g | s.g & Th. (salivary gland and thyroid) uptake ([2]; 4 h p.i.): 0.46 ± 0.22 % ID/g | Blood uptake ([2]; 4 h p.i., listed as 99mTc-Tricine-HYNIC-SSS-GE11): 0.39 ± 0.11 % ID/g | Blood uptake ([2]; 24 h p.i.): 0.18 ± 0.05 % ID/g | Bone uptake ([2]; 24 h p.i.): 0.28 ± 0.05 % ID/g | Heart uptake ([2]; 24 h p.i.): 0.40 ± 0.2 % ID/g | Kidney uptake ([2]; 24 h p.i.): 3.55 ± 0.38 % ID/g | Liver uptake ([2]; 24 h p.i.): 0.33 ± 0.069 % ID/g | Lung uptake ([2]; 24 h p.i.): 0.47 ± 0.09 % ID/g | Muscle uptake ([2]; 24 h p.i.): 0.19 ± 0.05 % ID/g | Spleen uptake ([2]; 24 h p.i.): 0.20 ± 0.06 % ID/g | Stomach uptake ([2]; 24 h p.i.): 0.32 ± 0.19 % ID/g | s.g & Th. (salivary gland and thyroid) uptake ([2]; 24 h p.i.): 0.36 ± 0.12 % ID/g
